Measured values: patent US20250382355A1 (Merck Sharp & Dohme, published 2025)

Legend:
[1] = target: T1, SARS-CoV-2 prefusion-stabilized spike protein (SARS-CoV-2-PreS) (SARS-CoV-2, UniProt P0DTC2 14-1208); experiment: ELISA
[2] = target: SARS-CoV-2 Alpha B.1.1.7 spike on pseudovirus (SARS-CoV-2); experiment: cell-based or functional assay
[3] = target: SARS-CoV-2 Beta B.1.351 spike on pseudovirus (SARS-CoV-2); experiment: cell-based or functional assay
[4] = target: SARS-CoV-2 Gamma P.1 spike on pseudovirus (SARS-CoV-2); experiment: cell-based or functional assay
[5] = target: T1, SARS-CoV-2 prefusion-stabilized spike …; experiment: Biacore, apparent affinity
[6] = target: T2, Biotinylated CoV2 Spike ECD PreS-AVI protein (SARS-CoV-2, UniProt P0DTC2 14-1208); experiment: Octet binning; competitor 7A9
[7] = target: T2, Biotinylated CoV2 Spike ECD PreS-AVI …; experiment: Octet binning; competitor 8E9
[8] = target: T2, Biotinylated CoV2 Spike ECD PreS-AVI …; experiment: Octet binning; competitor 9B2
[9] = target: T2, Biotinylated CoV2 Spike ECD PreS-AVI …; experiment: Octet binning; competitor 11F8
[10] = target: T2, Biotinylated CoV2 Spike ECD PreS-AVI …; experiment: Octet binning; competitor 13C8
[11] = target: T2, Biotinylated CoV2 Spike ECD PreS-AVI …; experiment: Octet binning; competitor 15H1
[12] = target: T2, Biotinylated CoV2 Spike ECD PreS-AVI …; experiment: Octet binning; competitor 15H7
[13] = target: T2, Biotinylated CoV2 Spike ECD PreS-AVI …; experiment: Octet binning; competitor 1A11
[14] = target: T2, Biotinylated CoV2 Spike ECD PreS-AVI …; experiment: Octet binning; competitor Std-A
[15] = target: T2, Biotinylated CoV2 Spike ECD PreS-AVI …; experiment: Octet binning; competitor Std-B
[16] = target: T2, Biotinylated CoV2 Spike ECD PreS-AVI …; experiment: Octet binning; competitor Std-D
[17] = target: T2, Biotinylated CoV2 Spike ECD PreS-AVI …; experiment: Octet binning; competitor 19B8
[18] = target: T2, Biotinylated CoV2 Spike ECD PreS-AVI …; experiment: Octet binning; competitor 20D11
[19] = target: SARS-CoV-2 Omicron spike on pseudovirus (SARS-CoV-2); experiment: cell-based or functional assay

Binder	EC50 [1] [nM]	pseudovirus neutralization IC50 [2] [nM]	pseudovirus neutralization IC50 [3] [nM]	pseudovirus neutralization IC50 [4] [nM]	Kd [5] [nM]	binning response [6]	binning response [7]	binning response [8]	binning response [9]	binning response [10]	binning response [11]	binning response [12]	binning response [13]	binning response [14]	binning response [15]	binning response [16]	binning response [17]	binning response [18]	pseudovirus neutralization IC50 [19] [nM]
1E4 VHH-Fc (Fc fusion) QVLLVESGGGLVQAGGLLRLACSASGRTFTENVMGWFRQAPGKEREFVAAINWNTGSTYYSDSRKGRFTISKDNAKNTMFLQINNLKPEDTAVYYCGGTSSSYYYIGEFIPDYWGQGTQVTVSS	0.04	2.2	0.58	2.6	< 0.2	0.26	0.09	0.11	0.11	0.12	0.11	0.11	0.09	0.28	0.24	0.08			
16H7 VHH-Fc (Fc fusion) QVQLVESGGGLVQAGGSLRLSCAASGRAFSKDTMGWFRQAPGKEREFVAVISASGDSTYYADFVKGRFTISRDNAKNTEYLQMNSLKPEDTAVYHCAADGARAYYSINAHRYSWAYNYWGQGTQVTVSS	0.08				3												0.19	0.56	
7A9 VHH-Fc (Fc fusion) QVQLVESGGGLVQAGGSLRLSCSASGGTASRSAMGWFRQAPGKEREFVAGISRRNSGSTYVADSYEDSVKGRFTISRDNAKNTIYLQMNSLKPEDTAVYYCAAEPTLGWYVPRRSVEYEYWGQGTQVTVSS	0.16				< 0.2	0.06	0.37	0.38	0.32	0.52	0.37	0.34	0.32	0.34	0.3	0.46			44
9B2 VHH-Fc (Fc fusion) QVQLVESGGGLVQPGGSLRLSCAASGFTLDNYAIGWFRQAPGKEREGVSCISSSDGDTQYADSVKGRFTISRDNAKNTVYLQMNSLKPEDTAVYYCAVEKVYARSWFFHLCSELDFGSWGQGTQVTVSS	0.1	22	4.2	21	< 0.2	0.36	0.09	0.1	0.11	0.12	0.13	0.11	0.1	0.32	0.32	0.05			52
10B8 VHH-Fc (Fc fusion) QVQLVESGGGLVQPGGSLRLSCAASGITLDYYAIAWFRQAPGKEREGVSCFCSSDGDIRYADSVKGRFTISRDNAKNTVYLQMNSLKPEDTAVYYCATERVYSSTWFFHRYSELDFGSWGRGTQVTVSS	1.35	0.38	0.23	0.21	< 0.2	0.42	0.09	0.12	0.1	0.12	0.12	0.12	0.1	0.39	0.36	0.05			4.1
19E10 VHH-Fc (Fc fusion) QVQLVESGGGLVQPGGSLRLSCVASGSTISINSMGWYRQAPGKAREMVATITNDGPIKYADPVKGRFTISRDNPKNTVYLQMNSLKPEDTAVYYCVADRAYWLAGEWEYWGQGTQVTVSS	0.03	7	3.1	5.9	< 0.2	0.3	0.09	0.11	0.12	0.11	0.12	0.11	0.08	0.26	0.22	0.06			309
1A11 VHH-Fc (Fc fusion) QVQLVESGGGLVQAGGSLRLSCEVSGSIYSINSMGWYRQAPGKQRELVAGIVSDGRINYADSVKGRFTISRAKNTVYLQMNSLKPEDTAVYYCAADRAFVYAGDYDYLGQGTQVTVSS	0.18	6.6	4.1	6.4	< 0.2	0.38	0.1	0.13	0.13	0.11	0.14	0.14	0.1	0.35	0.34	0.06			42
5A6 VHH-Fc (Fc fusion) QVQLVESGGGLAQAGGSLRLSCATSGLTFSMSAMGWFRQAPGNEREFVGVINWNGGSSRYADSVRGRFTISRDNAKNTVYLQMNSLKPEDTGVYYCAADALNIGTGEVNPRLYDYWGQGTQVMVSS	0.14	26	54	3.1	< 0.2	0.37	0.09	0.11	0.09	0.09	0.12	0.1	0.09	0.39	0.35	0.03			
20D11 VHH-Fc (Fc fusion) QVQLVESGGGLVQAGGSLRLSCAASGRTSSIYSVGWFRQAPGKERELVAGITWSGGTTYYSDSVKGRFTISRDNAKNTVNLQMNNLKPEDTAIYYCAVDRYSMTMSARDYDYWGQGTQVTVSS	0.62				< 0.2												0.43	0.04	
3D4 VHH-Fc (Fc fusion) QVQLVESGGGLVQPGGSLRLSCAASGFTLDLNSIGWFRQAPGKEREGVSCISPSGSRMHYADSVKGRFTISRDNAKNTVYLQMNSLKPEDTAVYYCATGSPSYHYCSMYGLEYDSWGQGTQVTVPS	0.13	1.5	1.1	0.59	< 0.2	0.32	0.08	0.09	0.09	0.1	0.1	0.09	0.08	0.34	0.31	0.04			
19C10 VHH-Fc (Fc fusion) QVQLVESGGGLVQPGGSLRLSCAASGFTLDLNSIGWFRQAPGKEREGVSCISPSASSTHYADSVKGRFTISRDNAKNTVYLQMNSLKPEDTAVYYCATGTPSYHYCSMYGLEYDDWGQGTQVTVSS	0.06	0.85	0.66	0.8	< 0.2	0.36	0.1	0.11	0.12	0.1	0.1	0.1	0.08	0.35	0.35	0.04			
